# ± gives the half width of the 95% confidence interval.
# Assay: folding stability dG unfold from chymotrypsin proteolysis; higher = more stable
# Outline: (§1)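 K50 was inferred by Bayesian fitting of sequencing counts obtained after protease digestion of designed mini-proteins. Unfolding free energy was derived by comparison with a sequence-predicted unfolded-state K50 and a shared folded-state K50, for each protease or both combined. The mini-proteins were under 80 residues, had no cysteine, were carried in a PA-tagged cDNA display construct, and were kept only if AlphaFold2 dimer inter-PAE exceeded 15.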
row,Sequence,folding stability dG unfold [kcal/mol]
1,SAGGSAGMPSPVLLDVTIANPDGTTSTVTAPYASPEVAEAYVRENYPDAEVTYDPATGRVSVNVPSSAGGSA [r15_313_JUSTAS],2.09 ± 0.033
2,SMIKPDEVVEKIEFTFPDGVAGDTRTFPVPEGSVIVYIDLGEPVYVMEILEDGSVKIEPVPEEVAKELAKSA [r9_1144_TrMRF],0.115 ± 0.1
3,MEEIRDLPGIKWQPIERDGDRYYWMFTIPPEQFKNNGKPPVIVMAEFEPNGKWRITPWIRPWLRKLGIEPVS [r1_256_TrROS],1.72 ± 0.083
4,SAGGITIEWERNPDGYPNIKIQIRAPNGKKVAKLPIQFDPNDGGMTKLDLKKLLKEINLPPNVEVEFISAGG [r13_479_TrROS],1.22 ± 0.13
5,SAGGERKVKIEVMWNPDDPNYYMISVKFPGQERQFMIDPNDPERIIEFLEDLLGPGYKVDDIEIHPFRSAGG [r13_519_TrROS],1.61 ± 0.053
6,SAGGSAGGSAGGMVIVTFPDGSVREVEVLETEPDGTVVVAPPDRPVETLSGAGLTLTPVPSAGGSAGGSAGG [r7_823_JUSTAS],-0.524 ± 0.13
7,SAGGSAGGSMPAGVLVTVTITITKPGKPETLDELDVTVAEGDLDALEEEFAEKYPGLEVTVVRSAGGSAGGS [r12_21_JUSTAS],1.92 ± 0.089
8,SAGGSAGGSAGGMKYTIKVTTTYPDGTVTEYTFPSSVSKEEIIKELPSDVVDITFTETASSAGGSAGGSAGG [r7_288_JUSTAS],2.17 ± 0.026
9,SAGGEDELRPITPEELKALFDRLAAAHGLESEILEVEEPEDVVIVTARIRHGDTVLEVTVAFPVAKDPSAGG [r13_652_TrMRF],2.97 ± 0.1
10,SAGGSPIKPITFEFPNIKVTVYRMPNKYIMVHIEFRENGEPYYLMITFKLDPDNKLKATSIGPMPPSAGGSA [r2_171_TrROS],4.537 ± 0.037
11,SAGGSSSASNISTNPTPLPEESVTVTASSDGVITVTITDPNGVPTTYTYNIPSGSIEEAIAEAISSSAGGSA [r2_298_JUSTAS],2.06 ± 0.09

# Assay: folding stability dG unfold (combined trypsin and chymotrypsin); higher = more stable
# Outline: as §1
row,Sequence,folding stability dG unfold [kcal/mol]
1,SELAEEAAKRAREAFAEEHPGWDVLSVEVEVEKDPNNDVVTVTVKLTLRRESPEPREEVLEEEVTLTFPLKS [r1_181_JUSTAS],2.91 ± 0.067
2,SAGGSAGGEDPNFTPPVKVYYLDLEIEVKPNEIEKLKEEFPDLEAEYEKLGDTYKVKLRIPVPVSAGGSAGG [r6_685_TrMRF],1.85 ± 0.17
3,SMTVSATAVPFGDRLVVTVTVTVDPTLFPDRPPGPAVWERVARELARELGIDSVTLAPLPDDTFVALFDDSA [r9_883_TrMRF],2.48 ± 0.084
4,SAGGSAGGSKKKIKITVEKVDEEKGYYYVTIEIYDEETGELVEKKTIVAPSKEEALKALKELLSAGGSAGGS [r12_26_TrROS_Hall],4.08 ± 0.35
5,SAGGSIEEILKAIPDAEKYEIDREKGIAYVTKKNTLYIVTVPRTSLPSPNGVLEPVSPISIKELPLESAGGS [r16_65_JUSTAS],0.447 ± 0.089
6,SAGGSAGGSASAEIVPLTLTFPVKFKKDPNGKTKEKTVEVKIELYVIRDPNGNLYTIAKISLSAGGSAGGSA [r18_284_TrMRF],3.98 ± 0.15
7,SAGGGTEIEYNPETGEIIVKVNPLIPYPFEPGSETIPLPFEGDPEAAEQEIRDLIEEHPDASFDIKPSSAGG [r13_284_TrMRF],0.0628 ± 0.061
8,SAGGSAGGSAGSMKTLVTTETSTVPGTTTTVTTTTTTTYDPTSSETTTTTTPVTNPAPAASAGGSAGGSAGG [r17_309_JUSTAS],0.711 ± 0.071
9,SAGGMTTTVELELEDPVNLGVPVRVEATVTYEKDPNGNPVAKAEITTTYPDGKEEKTTIPVSELKGLGSAGG [r13_787_JUSTAS],-0.00381 ± 0.17
10,SAGGSAGGSAGGDGEDGKPKPEPKIKIKIEVESVRNPNGFLIVTYRIPALGIWITIIINSAGGSAGGSAGGS [r10_160_TrROS],4.6 ± 0.39
11,SAPPNVWVSRTDPATGAVHAEDIPFPDGATAETVPDPATGTVAQSSDGPPAVLEEVRAALPPDASIEPASAG [r14_252_JUSTAS],-0.175 ± 0.2
12,SAGGPVTFEAPLEELLKALPPELVRHASVEPLGEGERRFIATVELEDRRIEAYSDPERPGRVLVTLHFSAGG [r13_942_TrMRF],0.569 ± 0.12
13,SAGGSAGGSAGGAPTIRVELRHPNGERIELEFPADADVIFVPEDYEITRIEIVPADDPASAGGSAGGSAGGS [r10_571_TrMRF],1.69 ± 0.052
14,SAGGSMKVFVFEVKVEVEVKLDKDGNLTVEIKKVEVKPVKKIPLSEEELEKLREAKKKGLTLEEILSAGGSA [r2_327_TrROS_Hall],2.78 ± 0.18
15,SAGGMMKIRIEVENPKGEKKEIELSEEELERIKEALKEGKVLTEEELKKLIELAKEKGYKVKIVEIESAGGS [r8_159_TrROS_Hall],2.09 ± 0.24
16,SAGLFITVEANPNNGTMRITLYRMEPRKDGDGPKMDIEPIAEIEVPMESPEEARDKAKDKAKNLLDKFNSAG [r5_956_TrROS],1.58 ± 0.11
17,SAGGEEKEKLREAIRAALDEAIKEGKKIKKIVIVASPEKKEEIAKLLEEEGLLENLEIEVVSPEELKSAGGS [r16_164_TrROS_Hall],1.27 ± 0.25
18,SAGGSAGGSAGGKPYVIVPVTVRFTIDIPKDHPLLKELDINPEDVKIEFEFSFLGEVPASAGGSAGGSAGGS [r10_82_TrMRF],2.95 ± 0.12
19,SAGGSAGGMEEVLALLKELGLEVKSVDIKSPDKVIVYIKPKDEKKLEELKKAVPKSLVDEIGLESAGGSAGG [r6_84_JUSTAS],0.275 ± 0.13
20,SLPNRPLVPFELELRLPRFEVRVRLYRLPDGSYLLVAEIRFPNGLTARAEFVLDPVTGRIYLVRVEVRPESA [r9_795_TrMRF],4.29 ± 0.05
21,SAGSSVSVSYDPNNPDKMTITITDPANGTQVSAVTAPVYKRPDGTIVVPLTITFPASGKVTTKTFTIPASAG [r5_610_JUSTAS],1.22 ± 0.059
